The text below walks through data of article PMC8784115 (Proceedings of the National Academy of Sciences of the …, 2022).

No end group written: not given here. Alexa594 = Alexa594 fluorescent dye

The target of experiment [1] is T1, TAZ1 domain of CREB-binding protein (CBP), mouse CBP residues 340 to 439 (mouse, UniProt P45481 340-439). Nature of the experiment: fluorescence polarisation. A general note: In fluorescence polarisation assays a small probe gives low polarisation when free and higher when bound to something large.
T1 sequence (P45481 340-439): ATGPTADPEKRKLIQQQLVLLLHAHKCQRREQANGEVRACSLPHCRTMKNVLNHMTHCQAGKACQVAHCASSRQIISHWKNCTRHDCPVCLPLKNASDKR
In experiment [2] the target is T1, TAZ1 domain of CREB-binding protein …. Nature of the experiment: fluorescence polarisation. The source holds these as a separate data set.
The target is the same in experiment [3]. Put plainly: NMR titration.
For experiment [4], the target named is preformed complex of 15N-TAZ1 and HIF-1α (mouse | human, UniProt P45481 340-439; Q16665 776-826). Put plainly: NMR titration.
Chain of preformed complex of 15N-TAZ1 and HIF-1α (P45481 340-439, one chain of several): as the sequence (P45481 340-439) above
Experiment [5] concerns the target T1, TAZ1 domain of CREB-binding protein …. Put plainly: fluorescence polarisation. This is another data set of the same source.

B1: Alexa594-labeled HIF-1α peptide (C800V, labelled at C780) (peptide)
chain: GSHMSDLAC(Alexa594)RLLGQSMDESGLPQLTSYDVEVNAPIQGSRNLLQGEELLRALDQVN
B1: in experiment [1], the binding result was “binds”.

B2: Alexa594-labeled CITED 216-269 peptide (labelled at C261) (peptide)
chain: GSHMSNVIDTDFIDEEVLMSLVIEMGLDRIKELPELWLGQNEFDFMTDFVC(Alexa594)KQQPSRVS
As for B2, the binding result in experiment [2] is “binds”.

B3: CITED APAA peptide (CITED2 216-269 with the nonproline residues of the LPEL motif mutated to alanine) (peptide)
chain: GSHMSNVIDTDFIDEEVLMSLVIEMGLDRIKEAPAAWLGQNEFDFMTDFVCKQQPSRVS
Regarding B3, the binding result in experiment [3] and in experiment [4] was “binds” throughout.

B4: Alexa594-labeled CITED APAA peptide (labelled at C261) (peptide)
chain: GSHMSNVIDTDFIDEEVLMSLVIEMGLDRIKEAPAAWLGQNEFDFMTDFVC(Alexa594)KQQPSRVS
Consider B4, for which the binding result in experiment [5] is “binds”.
